Laboratory results: US9327008B2, “Cell-permeant peptide-based inhibitor of kinases” (Purdue Research Foundation, priority 2008, dated 2016)

Experiments:
[1] = biological target: T1, PKG1α (Homo sapiens, UniProt Q13976); test: Millipore radiometric kinase activity assay, PKG1α (h); type: biochemical; conditions: peptide 100 μM
T1 construct: purchased Millipore (radiometric assay service)
T1 sequence (Q13976 1-671): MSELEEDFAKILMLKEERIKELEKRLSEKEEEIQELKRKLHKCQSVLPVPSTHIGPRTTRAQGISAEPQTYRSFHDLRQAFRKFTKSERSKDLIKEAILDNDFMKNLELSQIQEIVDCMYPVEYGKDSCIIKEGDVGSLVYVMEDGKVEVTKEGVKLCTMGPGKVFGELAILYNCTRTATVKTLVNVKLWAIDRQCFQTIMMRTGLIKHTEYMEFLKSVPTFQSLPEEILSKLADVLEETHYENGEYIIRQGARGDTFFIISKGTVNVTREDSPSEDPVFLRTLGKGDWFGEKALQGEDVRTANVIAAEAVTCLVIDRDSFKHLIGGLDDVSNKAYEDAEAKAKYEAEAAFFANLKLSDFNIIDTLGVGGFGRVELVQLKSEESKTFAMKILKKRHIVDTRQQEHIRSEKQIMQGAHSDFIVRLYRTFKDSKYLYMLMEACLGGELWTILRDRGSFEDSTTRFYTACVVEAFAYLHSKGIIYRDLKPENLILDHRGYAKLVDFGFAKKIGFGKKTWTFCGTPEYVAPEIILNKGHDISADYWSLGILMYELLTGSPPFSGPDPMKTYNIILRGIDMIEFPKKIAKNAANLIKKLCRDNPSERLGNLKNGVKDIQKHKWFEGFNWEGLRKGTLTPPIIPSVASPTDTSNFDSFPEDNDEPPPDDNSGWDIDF
Description: (§1) A commercial radiometric assay service (Millipore, Billerica, Mass.) was used to test the specificity and potency of peptides containing a coupled transduction domain and therapeutic domain, hereinafter “complete peptides”). In these assays, if the kinase is not inhibited by an inhibitor peptide, a positively charged substrate is phosphorylated with a radiolabeled phosphate group from an ATP.
In a final reaction volume of 25 μL, PKG1α (h) (5-10 mU) is incubated with 8 mM MOPS pH 7.0, 0.2 mM EDTA, 10 μM cGMP, 200 μM […] [SEQ ID NO: 62], 10 mM MgAcetate and [γ-^33P-ATP] (specific activity approx. 500 cpm/pmol, concentration as required). The reaction is initiated by the addition of the MgATP mix. After incubation for 40 minutes at room temperature, the reaction is stopped by the addition of 5 μL of a 3% phosphoric acid solution. 10 μL of the reaction is then spotted onto a P30 filtermat and washed three times for 5 minutes in 75 mM phosphoric acid and once in methanol prior to drying and scintillation counting.
(§2) IC50 values for inhibitor peptides were determined using Millipore's IC50Profiler Express service. The IC50 value was estimated from a 10-point curve of one-half log dilutions. […]

[2] = biological target: T2, Tie2 (Homo sapiens, UniProt Q02763); test: Millipore radiometric kinase activity assay, Tie2 (h); type: biochemical
T2 construct: purchased Millipore (radiometric assay service)
Description: as §1
In a final reaction volume of 25 μL, Tie2 (h) (5-10 mU) is incubated with 8 mM MOPS pH 7.0, 0.2 mM EDTA, 0.5 mM MnCl2, 0.1 mg/mL poly(Glu, Tyr) 4:1, 10 mM MgAcetate and [γ-^33P-ATP] (specific activity approx. 500 cpm/pmol, concentration as required). The reaction is initiated by the addition of the MgATP mix. After incubation for 40 minutes at room temperature, the reaction is stopped by the addition of 5 μL of a 3% phosphoric acid solution. 10 μL of the reaction is then spotted onto a Filtermat A and washed three times for 5 minutes in 75 mM phosphoric acid and once in methanol prior to drying and scintillation counting.
as §2

[3] = tested on: 10 Human Kinases; test: Specificity of complete inhibitor peptide variants on 10 human kinases; type: biochemical; conditions: Table 5
Description: as §1
IC50 values for inhibitor peptides were determined using Millipore's IC50Profiler Express service. The IC50 value was estimated from a 10-point curve of one-half log dilutions. For peptides tested for specificity, the concentration of the peptides that inhibited approximately 95% of MK2 activity was chosen to profile against a battery of kinases related to MK2, cell viability, or human disease from MilliporeKinaseProfiler service. In both assays, compounds were supplied in dimethylsulfoxide (DMSO). Every kinase activity measurement was conducted in duplicate.
Additional therapeutic inhibitor peptide variants were assayed for activity against several human kinases representative of several families of kinases. […]

[4] = biological target: MK2 (Homo sapiens, UniProt P49137); test: Omnia fluorescence-based kinase activity assay for MAPKAP-K2 (reaction velocity); type: biochemical; set-up: purchased Invitrogen; conditions: 100 μM peptide; percentage change in MK2 reaction velocity versus unsubstituted KALNRQLGVAA at 100 μM; SD of three samples
Description: The Omnia® Kinase Assay for MAPKAP-K2 kit (Invitrogen, Carlsbad, Calif.), was used to determine the reaction velocity for MK2 in the presence and absence of each of the peptides listed in Table 1. The kit contains a proprietary reaction buffer to which the following were added (final concentrations are given): 1 mM ATP, 0.2 mM DTT, 10 μM MAPKAP-K2 Sox-modified peptide substrate, 5 ng MK2, and the inhibitor peptide of interest (final volume of 50 μL). Human MK2 was purchased from Invitrogen. The reactions were performed at 30° C. in the wells of a low-protein-binding 96-well plate provided with the kit, and fluorescence readings (excitation=360 nm, emission=485 nm) were taken every 30 seconds for 20 minutes using a SpectraMax M5 Spectrophotometer (Molecular Devices). Reaction velocity was determined for each reaction well from the slope of a plot of relative fluorescence units versus time. Each inhibitor peptide was tested at least at four concentrations, 12.5, 25, 50 and […], in triplicate.
In Table 1, “a” represents that the results shown are for 100 μM for all peptides; “b” represents the percentage change in MK2 reaction velocity versus the unsubstituted peptide ([…]) [SEQ ID NO: 13] at a concentration of 100 μM; “c” represents the error reported as the standard deviation between three samples.

[5] = tested on: IL-1β expression in rat primary cortical astrocyte cultures; conditions: 1 mM or 3 mM MK2i with TNF-α 5 or 10 ng/ml; 18-22 hours
Description: Primary rat astrocytes were isolated from embryonic day 18 Sprague Dawley rat cortices. […] Briefly, the rat cortexes were triturated with a 1 ml pipet aid until most of the large cortex pieces were dispersed. After larger tissue fragments were allowed to settle, the supernatant was collected, in a 15 ml conical tube, and pelleted by centrifugation at 1100 rpm for 1 minute. The resulting supernatant was discarded and the pellet resuspended in neurobasal media (10% horse serum, 3 mM glutamine). The astrocytes then were seeded in the petri dishes and grown until they were confluent (80-95%) after which time they were passed. Astrocytes were passed 1:4, grown to 80-95% confluency, then rinsed twice with PBS. Different treatment types were applied to each corresponding petri dish for 18-22 hours. There was a total of 1 ml of media (neurobasal media with 10% horse serum, 3 mM glutamine) plus treatment in each petri dish. […]
After 18-22 hours, the cells were rinsed with PBS, scraped into a small centrifuge tube using a lysis buffer (8 M urea, 4% CHAPS, 10 mM DTT), and disrupted by using a Disruptor Genie™ (Scientific Industries, Bohemia, N.Y.) for 2 hours. The cells were pelleted by centrifugation at 17 krpm for 15 minutes, the supernatant (cell lysate) collected and the total protein concentration quantified (Pierce BCA Protein Assay kit, Thermo Fisher Scientific, Rockford, Ill.).

[6] = tested on: IL-6 expression in triple culture of neurons, astrocytes and microglia; conditions: 1 mM or 3 mM MK2i with TNF-α 5 or 10 ng/ml
Description: The inhibitory effect of therapeutic inhibitor protein having amino acid sequence [sequence] [SEQ ID NO: 11] on IL-6 production was studied in a triple culture consisting of neurons, astrocytes and microglia. […] The E18 cells were plated (1×10^6 cells/ml) to support differentiation into neurons, astrocytes and microglia. […] The positive control comprised treating the cells with TNF-α (either 5 ng/ml or 10 ng/ml); as a negative control, the cells were exposed to cell media without any treatment. […] Cytokines with or without therapeutic inhibitor peptide were always added simultaneously in this media formulation.

T2 sequence (Q02763 23-1124): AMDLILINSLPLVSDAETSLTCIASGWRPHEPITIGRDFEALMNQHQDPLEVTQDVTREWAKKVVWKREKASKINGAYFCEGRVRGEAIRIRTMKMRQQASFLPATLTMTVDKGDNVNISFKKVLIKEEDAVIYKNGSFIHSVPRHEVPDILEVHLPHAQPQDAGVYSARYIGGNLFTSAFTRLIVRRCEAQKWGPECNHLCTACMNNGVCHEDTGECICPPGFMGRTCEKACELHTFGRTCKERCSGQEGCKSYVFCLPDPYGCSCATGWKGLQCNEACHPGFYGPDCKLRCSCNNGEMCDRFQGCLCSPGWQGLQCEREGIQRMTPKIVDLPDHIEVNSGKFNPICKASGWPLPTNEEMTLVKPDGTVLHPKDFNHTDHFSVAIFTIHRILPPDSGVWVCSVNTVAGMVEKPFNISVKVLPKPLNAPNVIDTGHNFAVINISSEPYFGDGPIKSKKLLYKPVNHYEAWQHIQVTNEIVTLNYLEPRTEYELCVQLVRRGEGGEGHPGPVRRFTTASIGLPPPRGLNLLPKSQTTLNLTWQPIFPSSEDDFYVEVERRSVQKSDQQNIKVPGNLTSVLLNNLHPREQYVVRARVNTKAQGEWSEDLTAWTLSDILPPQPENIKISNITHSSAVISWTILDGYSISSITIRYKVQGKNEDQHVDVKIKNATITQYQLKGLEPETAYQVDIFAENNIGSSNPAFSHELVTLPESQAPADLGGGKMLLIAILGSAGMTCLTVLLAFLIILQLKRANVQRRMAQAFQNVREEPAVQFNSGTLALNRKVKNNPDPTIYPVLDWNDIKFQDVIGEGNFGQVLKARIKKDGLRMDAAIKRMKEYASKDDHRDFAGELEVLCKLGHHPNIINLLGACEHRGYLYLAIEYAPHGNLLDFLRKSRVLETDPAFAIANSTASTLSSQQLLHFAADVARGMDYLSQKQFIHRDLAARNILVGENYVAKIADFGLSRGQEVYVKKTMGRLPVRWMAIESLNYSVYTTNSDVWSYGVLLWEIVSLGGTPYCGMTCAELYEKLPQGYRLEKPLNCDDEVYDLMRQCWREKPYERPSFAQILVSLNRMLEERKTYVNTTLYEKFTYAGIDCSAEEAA
Sequence of MK2 (P49137 whole entry): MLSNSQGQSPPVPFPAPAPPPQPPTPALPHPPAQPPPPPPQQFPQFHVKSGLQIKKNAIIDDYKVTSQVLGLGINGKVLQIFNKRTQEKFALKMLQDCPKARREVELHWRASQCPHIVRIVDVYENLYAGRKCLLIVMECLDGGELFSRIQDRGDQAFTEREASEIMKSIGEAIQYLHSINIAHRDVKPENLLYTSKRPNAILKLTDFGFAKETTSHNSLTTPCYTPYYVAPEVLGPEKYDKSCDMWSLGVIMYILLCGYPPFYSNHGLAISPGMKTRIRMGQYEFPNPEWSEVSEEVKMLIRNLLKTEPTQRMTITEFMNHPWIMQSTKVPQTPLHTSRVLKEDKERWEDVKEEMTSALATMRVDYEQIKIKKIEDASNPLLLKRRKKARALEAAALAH

Row | Sequence | PKG1α Kinase Activity (%) (+SD %) [1] | Tie2 Kinase Activity (%) (+SD %) ([2]; peptide 30 μM) | Tie2 Kinase Activity (%) (+SD %) ([2]; peptide 100 μM) | specificity among therapeutic inhibitor peptides (in words) [3] | percent change in MK2 reaction velocity versus unsubstituted peptide [4] | level of expression of IL-1β (FIG. 10) [5] | level of expression of IL-6 (FIG. 11) [6]
1 | KAFAKLAARLYRKALARQLGVAA | 25 (2) % | – | – | – | – | – | –
2 | WLRRIKAWLRRIKALNRQLGVAA | 12 (2) % | 17 (1) % | 0 (0) % | least specificity | −132(10) % | – | –
3 | YARAAARQARAKALARQLGVAA | – | – | – | – | – | able to inhibit | reduced levels of expression of IL-6
